Measurements from US12708119B2, “Methods of reducing or preventing clostridioides difficile colonization” (priority 2020, dated 2026).
“Also recorded” adds a separate entry of the source.

What was measured:
[1] = test system: Clostridioides difficile SH11 spores; assay: Sporicidal enhancement of CotE_H2 and CDec_D1 aptamers in combination with Clinell sporicidal solution: growth / MSC (Examples 4 and 6); format: cell-based; conditions: for effect of the addition of aptamer on the sporicidal capabilities of Clinell sporicidal solution / growth of spores in the presence of aptamer alone: SH11 spores
Protocol: (§1) Prior to testing, CotE_H2 aptamers were diluted in nuclease free water to a concentration of 80 μM. The aptamers were folded by heating to 95° C. in a digital dry bath for 5 minutes and then immediately placed on ice and cooled to 2° C. The aptamers were stored at 2-4° C. while in use. A Clostridioides difficile SH11 bacterial spore inoculum was prepared to 1×10^7±5×10^6 CFUmL^−1 according to internal procedures. The inoculum was confirmed by serial dilution and plating out the resultant suspensions onto brain heart infusion agar supplemented with horse blood and yeast (BHI-YHT). CotE_H2 aptamers were further diluted in “TbKst” buffer to obtain 2× in-test concentrations (40, 20, 10 and 5 μM). Ten microlitres of C. difficile spores were added to 10 μL of each 2× in-test concentration of CotE_H2 aptamer. The spore suspension was pipette mixed and incubated with CotE_H2 aptamer at room temperature for one hour. The spores were then washed three times by centrifuging at 13,400 RPM for 10 minutes. In each wash the supernatant was removed, and the pellet was resuspended in 100 μL of “TbKst” buffer. Following the third wash, the spores were resuspended in 100 μL of “TbKst” buffer and vortexed to obtain a homogenous solution.
(§2) A total of six 2× in-test concentrations (1:2 dilutions) of the sporicidal test agent were prepared from the stock (100%, 50%, 25%, 12.5%, 6.25%, 3.125%). Negative and positive control solutions were also prepared. Ten microliter aliquots of each sporicidal test agent concentration or control solution were added to the wells of a 96-well plate. A 10 μL aliquot of the aptamer-spore suspension was added to each test agent or control solution and pipette mixed. The final in-test concentrations of the sporicidal test agent were 50%, 25%, 12.5%, 6.25%, 3.125%, 1.5625%. The plates were then incubated for 15 minutes at 37° C.±2° C. in an anaerobic environment. Following incubation, 50 μL of GH neutraliser was added to each well and pipette mixed. A 10 μL aliquot of neutralised suspension was taken from each well and transferred to an agar plate and incubated for 48 hours at 37° C.±2° C. in an anaerobic environment. Growth was recorded as “+” and no growth as “−”. The minimum sporicidal concentration (MSC) for each spore and aptamer concentration was identified as the lowest concentration with no growth for all replicates. […] The test was repeated without the presence of the aptamers and without the presence of the Clinell® sporicidal solution. Testing was also repeated using C. difficile ATCCR 43598™ and C. difficile R20291 spores. Testing was performed in triplicate. The method was repeated with CDec_D1 aptamers for all three strains of C. difficile spores.

[2] = test system: Clostridioides difficile ATCC® 43598™ spores; assay: as above; format: cell-based
Protocol: as §1, §2

[3] = test system: Clostridioides difficile R20291 spores; assay: as above; format: cell-based; conditions: for effect of the addition of aptamer on the sporicidal capabilities of Clinell sporicidal solution / growth of spores in the presence of aptamer alone: R20291 spores
Protocol: as §1, §2

[4] = test system: C. difficile SH11 spores; assay: Sporicidal enhancement of CDiff_F1 aptamer in combination with Clinell sporicidal solution: growth / MSC (Example 3); format: cell-based, Clostridioides difficile; design: key to Growth observed after recovering viable spores: Growth was recorded as “+”; no growth as “−”; conditions: for Growth observed after recovering viable spores: aptamers only, treatment 15 minutes
Protocol: (§3) Prior to testing, the CDiff_F1 aptamers were diluted in nuclease free water to a concentration of 80 μM. The aptamers were folded by heating to 95° C. in a digital dry bath for 5 minutes and then immediately placed on ice and cooled to 2° C. The aptamers were stored at 2-4° C. while in use. A C. difficile SH11 bacterial spore inoculum was prepared to 1×108±5×10^7 CFUmL−1 according to internal procedures. The inoculum was confirmed by serial dilution and plating out the resultant suspensions onto brain heart infusion agar supplemented with horse blood and yeast (BHI-YHT). The CDiff_F1 aptamers were further diluted in “BB+Mg2+” buffer to obtain two times in-test concentrations ([…]). Ten microlitres of C. difficile spores were added to 10 μL of each two times in-test concentration of CDiff_F1 aptamer. The spore suspension was pipette mixed and incubated with CDiff_F1 aptamer at room temperature for one hour. The spores were then washed three times by centrifuging at 13,400 RPM for 10 minutes. In each wash the supernatant was removed, and the pellet was resuspended in 100 μL of “BB+Mg2+” buffer. Following the third wash, the spores were resuspended in 100 μL of “BB+Mg2+” buffer and vortexed to obtain a homogenous solution.
(§4) A total of six, two times in-test concentrations of each sporicidal test agent were prepared from the stock (100%, 50%, 25%, 12.5%, 6.25%, 3.125%). Negative and positive control solutions were also prepared. Ten microliter aliquots of each sporicidal test agent concentration or control solution were added to the wells of a 96-well plate. A 10 μL aliquot of the aptamer-spore suspension was added to each test agent or control solution and pipette mixed. The final in-test concentrations of each sporicidal test agent were 50%, 25%, 12.5%, 6.25%, 3.125%, 1.5625%. The plates were then incubated for 15 minutes at 37° C.±2° C. in an anaerobic environment. Following incubation, 50 μL of GH neutraliser was added to each well and pipette mixed. A 10 μL aliquot of neutralised suspension was taken from each well and transferred to an agar plate and incubated for 48 hours at 37° C.±2° C. in an anaerobic environment. Growth was recorded as “+” and no growth as “−”. The minimum sporicidal concentration (MSC) for each concentration was identified as the lowest concentration with no growth for all replicates. […] The test was repeated without the presence of the aptamers and without the presence of the Clinell® sporicidal solution. Testing was also repeated using C. difficile ATCC® 43598™ and C. difficile R20291 spores. Testing was performed in triplicate.

[5] = test system: C. difficile R20291 spores; assay: as above; format: cell-based, Clostridioides difficile; design: key to Growth observed after recovering viable C. difficile R20291 spores: Growth was recorded as “+”; no growth as “−”; conditions: for Growth observed after recovering viable C. difficile R20291 spores: Aptamers only, treatment 15 minutes
Protocol: as §3, §4

[6] = test system: C. difficile ATCC® 43598™ spores; assay: as above; format: cell-based, Clostridioides difficile; design: key to Growth observed after recovering viable C. difficile ATCC 43598 spores: Growth was recorded as “+”; no growth as “−”; conditions: for Growth observed after recovering viable C. difficile ATCC 43598 spores: Aptamers only, treatment 15 minutes
Protocol: as §3, §4

[7] = C. difficile SH11 spores, aptamer without Clinell sporicidal solution
[8] = any concentration of CDec_D1 aptamers without Clinell sporicidal solution
[9] = C. difficile ATCC ® 43598 ™ spores, aptamer without Clinell sporicidal solution
[10] = C. difficile R20291 spores, aptamer without Clinell sporicidal solution
[11] = any concentration of CotE_H2 aptamers without Clinell sporicidal solution

B1: CDec_D1: aptamer against CdeC, SEQ ID NO: 6; Table 4 lists fragments SEQ ID NO: 38, 39 under CdeC_D1 (nucleic acid)
DNA: CCAGTGTAGACTACTCAATGCCGTGGACTGGTCGGGTTTGGATTCGGCAGATGAATCAGTAGTACTATCCACAGGTCAACC
modifications: DNA, backbone and methylation of C not given here
In the case of B1, the “MSC of CDec_D1” value [1, 7] is reported as >20 µM, the “effect of the addition of aptamer on the sporicidal capabilities of Clinell sporicidal solution” value (from here on “effect of the addition of aptamer”) [1] is reported as “enhanced” and the “growth of spores in the presence of aptamer alone” value (shortened to “growth of spores”) [1, 8] is reported as “unaffected”. For the same molecule, the “effect of the addition of aptamer” value ([2]; ATCC 43598 spores) was “enhanced”, the “growth of spores” value ([2]; ATCC 43598 spores, any concentration of CDec_D1 aptamers without Clinell sporicidal solution) was “unaffected” and the “MSC of CDec_D1” value [2, 9] was >20 µM. For the same molecule, the “MSC of CDec_D1” value [3, 10] was >20 µM, the “effect of the addition of aptamer” value [3] was “enhanced” and the “growth of spores” value [3, 8] was “unaffected”.

B2: CDiff_F1: aptamer against C.diff spores, SEQ ID NO: 1; Table 4 lists fragments SEQ ID NO: 24, 44, 45 under the same ID (nucleic acid)
DNA: CCAGTGTAGACTACTCAATGCTCTTACGATCCTCACCTGCTAGCACACCCATATCCCATGCGTACTATCCACAGGTCAACC
modifications: listed as DNA, chemistry not given here
With B2 the “effect of the addition of aptamer” value ([4]; SH11 spores) was “enhanced”, the “growth of spores” value ([4]; SH11 spores, any concentration of CDiff_F1 aptamers without Clinell sporicidal solution) was “unaffected; also recorded: did not affect” and the “MSC of CDiff_F1” value ([4]; SH11 spores, aptamer without Clinell sporicidal solution) was >20 µM. The “Growth observed after recovering viable spores” value ([4]; CDiff_F1 2.5 μM, SH11 spores) was “+”, the “Growth observed after recovering viable spores” value ([4]; CDiff_F1 5 μM, SH11 spores) was “+” and the “Growth observed after recovering viable spores” value ([4]; CDiff_F1 10 μM, SH11 spores) was “+”. The “Growth observed after recovering viable spores” value ([4]; CDiff_F1 20 μM, SH11 spores) was “+”, the “fold reduction in the concentration of peracetic acid required for sporicidal activity” value ([4]; spores of the SH11 strain, 20 μM of the aptamer) was “up to 4 fold” and the “Growth observed after recovering viable C. difficile R20291 spores” value ([5]; CDiff_F1 aptamer 2.5 μM) was “+”. The “Growth observed after recovering viable C. difficile R20291 spores” value ([5]; CDiff_F1 aptamer 5 μM) was “+”, the “Growth observed after recovering viable C. difficile R20291 spores” value ([5]; CDiff_F1 aptamer 10 μM) was “+” and the “Growth observed after recovering viable C. difficile R20291 spores” value ([5]; CDiff_F1 aptamer 20 μM) was “+”. For the same molecule, the “effect of the addition of aptamer” value ([5]; R20291 spores) was “enhanced”, the “MSC of CDiff_F1” value ([5]; R20291 spores, aptamer without Clinell sporicidal solution) was >20 µM and the “growth of spores” value ([5]; R20291 spores, only CDiff_F1 aptamers) was “did not affect”. For the same molecule, the “effect of the addition of aptamer” value ([6]; ATCC 43598 spores) was “enhanced”, the “growth of spores” value ([6]; ATCC 43598 spores, any concentration of CDiff_F1 aptamers without Clinell sporicidal solution) was “unaffected; also recorded: did not affect” and the “MSC of CDiff_F1” value ([6]; ATCC 43598 spores, aptamer without Clinell sporicidal solution) was >20 µM. For the same molecule, the “Growth observed after recovering viable C. difficile ATCC 43598 spores” value ([6]; CDiff_F1 aptamer 2.5 μM) was “+”, the “Growth observed after recovering viable C. difficile ATCC 43598 spores” value ([6]; CDiff_F1 aptamer 5 μM) was “+” and the “Growth observed after recovering viable C. difficile ATCC 43598 spores” value ([6]; CDiff_F1 aptamer 10 μM) was “+”. The “Growth observed after recovering viable C. difficile ATCC 43598 spores” value ([6]; CDiff_F1 aptamer 20 μM) was “+” and the “fold reduction in the concentration of peracetic acid required for sporicidal activity” value ([6]; spores of the ATCC 43598 strain, after 15 minutes) was “up to 2 fold”.

B3: CotE_H2: aptamer against CotE, SEQ ID NO: 11; Table 4 lists fragments SEQ ID NO: 26-30 under the same ID (nucleic acid)
DNA: CCAGTGTAGACTACTCAATGCGGCTGTGTGACTTGACCTTTGGAATGGGTGGGAGGGATGGGTACTATCCACAGGTCAACC
modifications: listed as DNA, chemistry not given here
For B3, the “MSC of CotE_H2” value [1, 7] was >20 µM, the “effect of the addition of aptamer” value [1] was “enhanced” and the “growth of spores” value [1, 11] was “unaffected”. The “growth of spores” value ([2]; ATCC 43598 spores, any concentration of CotE_H2 aptamers without Clinell sporicidal solution) was “unaffected”, the “MSC of CotE_H2” value [2, 9] was >20 µM and the “MSC of CotE_H2” value [3, 10] was >20 µM. The “effect of the addition of aptamer” value [3] was “enhanced” and the “growth of spores” value [3, 11] was “unaffected”.
